System: MS2 coat protein
Test: apparent KD of MS2 coat protein; designed switch direction (-1 OFF switch, 1 ON switch): -1; higher = weaker reporter binding
In short: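 The buffer was Tris-HCl pH 7.5 with KCl, MgCl2, BSA, DTT, tRNA and Tween-20. In it, SNAP-549-labelled MS2 coat protein was titrated in doubling steps from 0.7 or 1.5 nM to 3 µM over chip-bound RNA switches transcribed by stalled E. coli RNA polymerase on Illumina chips. Apparent KD is the per-design median over clusters of curve fits to normalised fluorescence.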

[1] = Eterna round: R95, input ligand: FMN 200 uM
[2] = Eterna round: R95, input ligand: microRNA oligo, concentration not stated
[3] = Eterna round: R95, input ligand: none
[4] = input ligand: microRNA oligo, concentration not stated

AGUAUAGUCCAUGGCCGCAAGCUUUUUACUUGUCUUACCACAUGAGGAUCACCCAUGUGACAUGGGCACCUUAUGAU [Sensor v3, turn-off variant 2 (MOD of Oranla v.4)] (puzzle: Sensor v3, turn-off variant 2)
apparent KD of MS2 coat protein [1]: 20.4 nM
apparent KD of MS2 coat protein [2]: 34.3 nM
apparent KD of MS2 coat protein [3]: 19.6 nM

AGUAUUCGAGGAUAUACGUGCCAAUGAUCCAUGAGACUCCUACAUGAGGAUCACCCAUGUAGAAGGCGAAAACC [Eternabot (L1) Solution 99] (Eterna round: R97, puzzle: Exclusion 2)
apparent KD of MS2 coat protein (input ligand: FMN 200 uM): 19.1 nM
apparent KD of MS2 coat protein (input ligand: none): 15.9 nM

AGUCAGGCGGUAGGAUAUCCAAACCGAGUGACCCUUUCAUAACAUGAGGAUCACCCAUGUCGGUGGGAGAAGGGCCGUACGGCG [JL ViennaUCT Atra mod 2] (Eterna round: R96, puzzle: Exclusion NG 2)
apparent KD of MS2 coat protein (input ligand: FMN 200 uM): 305 nM
apparent KD of MS2 coat protein [4]: 145 nM
apparent KD of MS2 coat protein (input ligand: none): 343 nM

AGUCCACAUGAGGAUCACCCAUGUCAGGAUAUACGCAAUACAAAAGAACCCAUCAAAAGUAGAAGGGACAGGGA [Getequ] (puzzle: Exclusion 1)
apparent KD of MS2 coat protein [1]: 13.5 nM
apparent KD of MS2 coat protein [2]: 10 nM
apparent KD of MS2 coat protein [3]: 9.06 nM

AGUCCUAGUCAAGGAUAUACACCGAAGAAAUACGUAGAAGGUGACAUGAGGAUCACCCAUGUAGGGACUCUGGAAACAGAGGAA [Arordi] (Eterna round: R96, puzzle: Exclusion NG 1)
apparent KD of MS2 coat protein (input ligand: FMN 200 uM): 161 nM
apparent KD of MS2 coat protein [4]: 93.4 nM
apparent KD of MS2 coat protein (input ligand: none): 218 nM

AGUCCUGAUGUUAGGAUAUGCAACUAGCCAUUGUAGCAGAAGGAACAUGAGGAUCACCCAUGUACAAAGACCCA [Xeonbera] (puzzle: Brourd's mod of Exclusion 4)
apparent KD of MS2 coat protein [2]: 26.6 nM

AGUUCCUUUGUGAGGAUAUCAAUGAUAUAACUGUAUGAGAAGGCACAUGAGGAUCACCCAUGUUUGUUGCUGCA [Eternabot (L1) Solution 78] (Eterna round: R97, puzzle: Brourd's mod of Exclusion 4)
apparent KD of MS2 coat protein (input ligand: FMN 200 uM): 106 nM
apparent KD of MS2 coat protein (input ligand: none): 20.1 nM

AGUUGGCGAGGAUAUACAUGAGGAUCACCCAUGUGAAAUAUAAGAGUGAGGAAGAAAAGUAGAAGGCGCUGACA [Mat - Exclusion 3 - Mod of Salish D43] (puzzle: Exclusion 3)
apparent KD of MS2 coat protein [2]: 80.4 nM

AGUUGUUGCGUAGGAUAUGAGGAUCACCCAUAGUAGGAUAACGAAAGUGAAGGACUGAGGAUUACCCAGAAGGACGUGAUGACA [pwkr exNG2 2xF5 2xFMN.6] (Eterna round: R96, puzzle: Exclusion NG 2)
apparent KD of MS2 coat protein (input ligand: FMN 200 uM): 602 nM
apparent KD of MS2 coat protein [4]: 234 nM
apparent KD of MS2 coat protein (input ligand: none): 193 nM

AUAAAACAUGAGGAUCACCCAUGUCAGGAUAUACGACUCCAACCUAACAGCUUGGACCGUAGAAGGGACAAGGG [Exclusion 1 (MOD2.2 Esqu)] (Eterna round: R97, puzzle: Exclusion 1)
apparent KD of MS2 coat protein (input ligand: FMN 200 uM): 91.6 nM
apparent KD of MS2 coat protein (input ligand: none): 109 nM

AUAAAACAUGUAGGAUAUGCGUAGCGAAGCUAUGCAGAAGGACAUGAGGAUCACCCAUGUCUUUCCGUCUGCGAACAGACGGAA [Mat - Exclusion NG 1 - Mod of JL - D44] (Eterna round: R96, puzzle: Exclusion NG 1)
apparent KD of MS2 coat protein (input ligand: FMN 200 uM): 35.7 nM
apparent KD of MS2 coat protein [4]: 13.8 nM
apparent KD of MS2 coat protein (input ligand: none): 21 nM

AUAAAAGUAGGAUAUUGACUGAUCGACAUGAGGAUCACCCAUGUGGUGCUGUGCGGUAUUCAAGAAGGGCUAAAAU [Ceisusma] (puzzle: Exclusion 5)
apparent KD of MS2 coat protein [2]: 20.4 nM

AUAAAGCGAGGAUAUACAUGAGGAUCACCCAUGUGGCAGCCAGGUAGGAGUGACGUCGGUAGAAGGCGCACCCU [Quleraer] (puzzle: Exclusion 3)
apparent KD of MS2 coat protein [2]: 24.2 nM

AUAAAGUCAGGAUAUCGAAGUGAGUGGAGAGGAGGGAGGUACGAGAAGGGACAUGAGGAUCACCCAUGUAGGAA [JR_Exclusion4)Sub006] (puzzle: Exclusion 4)
apparent KD of MS2 coat protein [1]: 25.5 nM
apparent KD of MS2 coat protein [2]: 24.2 nM
apparent KD of MS2 coat protein [3]: 21.9 nM

Source: the supplement of paper PMC9170038
